Non-standard residues stand in square brackets, D forms with d. *: point of attachment. Bio = O=C1N[C@H]2[C@H](CS[C@H]2CCCCC(=O)*)N1; Aoa = not defined here
B1: VZV Orf27, C-terminally fused to the Flag epitope (pcDNA-Orf27-Flag, pHM4696) (other)
chain: MHLKPTRFFHANQPPMPHSYEMEDLCFDDMQYRWSPSNTPYRSMSRRYKSVSRSGPSMRVRSRTPCRRQTIRGKLMSKERSVYRHYFNYIARSPPEELATVRGLIVPIIKTTPVTLPFNLGQTVADNCLSLSGMGYHLGLGGYCPTCTASGEPRLCRTDRAALILAYVQQLNNIYEYRVFLASILALSDRANMQAASAEPLLSSVLAQPELFFMYHIMREGGMRDIRVLFYRDGDAGGFMMYVIFPGKSVHLHYRLIDHIQAACRGYKIVAHVWQTTFLLSVCRNPEQQTETVVPSIGTSDVYCKMCDLNFDGELLLEYKRLYALFDDFVPPRDYKDDDDK
B4: HCMV pUL53, C-terminally fused to the Flag epitope (pcDNA-UL53-Flag, pHM2590) (other)
chain: MSSVSGVRTPRERRSALRSLLRKRRQRELASKVASTVNGATSANNHGEPPSPADARPRLTLHDLHDIFREHPELELKYLNMMKMAITGKESICLPFNFHSHRQHTCLDISPYGNEQVSRIACTSCEDNRILPTASDAMVAFINQTSNIMKNRNFYYGFCKSSELLKLSTNQPPIFQIYYLLHAANHDIVPFMHAEDGRLHMHVIFENPDVHIPCDCITQMLTAAREDYSVTLNIVRDHVVISVLCHAVSASSVKIDVTILQRKIDEMDIPNDVSESFERYKELIQELCQSSGNNLYEEATSSYAIRSPLTASPLHVVSTNGCGPSSSSQSTPPHLHPPSQATQPHHYSHHQSQSQQHHHRPQSPPPPLFLNSIRAPDYKDDDDK
notes: also called pUL53-Flag; Flag-tagged pUL53
B8: EBV BFRF1, C-terminally fused to the HA epitope (pcDNA-BFRF1-HA, pHM4697) (other)
chain: MASPEERLLDELNNVIVSFLCDSGSLEVERCSGAHVFSRGSSQPLCTVKLRHGQIYHLEFVYKFLAFKLKNCNYPSSPVFVISNNGLATTLRCFLHEPSGLRSGQSGPCLGLSTDVDLPKNSIIMLGQDDFIKFKSPLVFPAELDLLKSMVVCRAYITEHRTTMQFLVFQAANAQKASRVMDMISDMSQQLSRSGQVEDTGARVTGGGGPRPGVTHSGCLGDSHVRGRGGWDLDNFSEAETEDEASYAPWRDKDSWSESEAAPWKKELVRHPIRRHRTRETRRMRGSHSRVEHVPPETRETVVGGAWRYSWRATPYLARVLAVTAVALLLMFLRWT
notes: also called EBC BFRF1-HA; HA-tagged BFRF1

Legend:
[1] = target: T1, HCMV pUL50, C-terminally fused to the HA epitope (pcDNA-UL50-HA, pHM2589) (human cytomegalovirus (HCMV) strain …, UniProt P16791 1-397); assay: coimmunoprecipitation, transiently transfected 293T cells
T1 sequence: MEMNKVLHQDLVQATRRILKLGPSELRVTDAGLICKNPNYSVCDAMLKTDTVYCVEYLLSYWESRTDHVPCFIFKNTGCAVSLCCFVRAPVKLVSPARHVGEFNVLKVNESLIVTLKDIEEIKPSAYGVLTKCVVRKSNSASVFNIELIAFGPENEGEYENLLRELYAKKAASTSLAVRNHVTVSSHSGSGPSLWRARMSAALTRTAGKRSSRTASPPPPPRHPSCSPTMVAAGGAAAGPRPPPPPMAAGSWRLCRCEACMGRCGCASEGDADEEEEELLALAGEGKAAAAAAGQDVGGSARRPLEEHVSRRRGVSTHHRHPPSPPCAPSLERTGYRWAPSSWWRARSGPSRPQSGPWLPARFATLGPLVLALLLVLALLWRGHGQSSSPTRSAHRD

[2] = target: T2, BFLF2 (EBV hook protein, soluble recombinant) (Epstein-Barr virus (EBV), UniProt P0CK47 78-318); assay: direct ELISA, BFLF2 coated, His-tagged BFRF1 in serial dilutions, anti-His-HRP
T2 sequence: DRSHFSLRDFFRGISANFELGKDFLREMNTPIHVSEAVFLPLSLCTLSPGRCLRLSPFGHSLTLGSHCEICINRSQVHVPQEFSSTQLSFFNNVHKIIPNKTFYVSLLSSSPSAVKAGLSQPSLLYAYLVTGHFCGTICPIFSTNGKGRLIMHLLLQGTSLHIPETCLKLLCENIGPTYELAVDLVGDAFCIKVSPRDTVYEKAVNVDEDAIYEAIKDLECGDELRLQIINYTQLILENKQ

[3] = target: B4; assay: coimmunoprecipitation, transiently transfected 293T cells
[4] = target: B1; assay: as above
[5] = target: T3, His-tagged pUL50 (HCMV groove protein, soluble recombinant) (human cytomegalovirus (HCMV)), P16791; assay: competitive ELISA, inhibition of His-tagged pUL50 binding to coated pUL53
T3 chain: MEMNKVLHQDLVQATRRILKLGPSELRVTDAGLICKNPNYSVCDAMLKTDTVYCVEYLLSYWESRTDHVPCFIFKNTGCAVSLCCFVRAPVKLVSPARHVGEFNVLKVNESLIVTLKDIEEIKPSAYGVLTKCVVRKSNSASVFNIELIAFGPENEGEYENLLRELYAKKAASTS

[6] = target: the molecule itself; assay: analytical size exclusion chromatography, self-association
[7] = target: B8; assay: coimmunoprecipitation, transiently transfected 293T cells
[8] = target: T4, pUL53 (HCMV hook protein, soluble recombinant) (human cytomegalovirus (HCMV), UniProt P16794 50-292); assay: direct ELISA, comparison of EC50 values
T4 sequence: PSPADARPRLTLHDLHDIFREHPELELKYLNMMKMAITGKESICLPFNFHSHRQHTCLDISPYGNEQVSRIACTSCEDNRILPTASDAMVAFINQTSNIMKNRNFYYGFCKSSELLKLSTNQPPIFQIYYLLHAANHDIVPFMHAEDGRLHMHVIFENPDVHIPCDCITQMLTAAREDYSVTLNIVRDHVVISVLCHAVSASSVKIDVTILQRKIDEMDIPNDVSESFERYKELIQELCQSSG

[9] = target: T4, pUL53 (HCMV hook protein, soluble …); assay: direct ELISA, pUL53 coated, His-tagged pUL50 in serial dilutions, anti-His-HRP

B1: no binding [1].

B2: His-tagged BFRF1 (EBV groove protein, soluble recombinant) (other)
chain: MASPEERLLDELNNVIVSFLCDSGSLEVERCSGAHVFSRGSSQPLCTVKLRHGQIYHLEFVYKFLAFKLKNCNYPSSPVFVISNNGLATTLRCFLHEPSGLRSGQSGPCLGLSTDVDLPKNSIIMLGQDDFIKFKSPLVFPAELDLLKSMVVCRAYITEHRTTMQFLVFQAANAQKASRVMDMISDMSQQLS
notes: also called His-tagged groove protein
Binder B2 has an EC50 [2] of 122 nM.

B3: VZV Orf24, C-terminally fused to the HA epitope (pcDNA-Orf24-HA, pHM4695) (other)
chain: MSRRTYVRSERRRGCGDNLLQRIRLVVPSALQCCDGDLPIFDPQRPPARCVFQFNGEDNVSEAFPVEYIMRLMANWAQVDCDPYIKIQNTGVSVLFQGFFFRPTNAPVAEVSIDSNNVILSSTLSTGINLSALESIKRGGGIDRRPLQALMWVNCFVRMPYVQLSFRFMGPEDPSRTIKLMARATDAYMYKETGNNLDEYIRWRPSFRSPPENGSPNTSVQMQSDIKPALPDTQTTRVWKLALPVANVTYALFIVIVLVVVLGAVLFWK
B3: no binding [3]; binds [4].

B4: binds [1].

Binder Ac-SHFSLRDFFRGISANFELGKDFLREMNTP[Aoa]K(Bio)-NH2 (reading uncertain) [EBV hook peptide (Ac-BFLF2 80-108-Aoa-Lys(Bio)-NH2)] has an IC50 [5] of 2600 nM and a fold lower inhibitory activity than the HCMV hook peptide [5] of 22 fold.

LTLHDLHDIFREHPELELKYLNMMKMAITK (modifications not checked) [HCMV hook peptide (Ac-pUL53 59-87-Aoa-Lys(Bio)-NH2)] showed an IC50 [5] of 114 nM.

B5: pUL53 (50-292) (other)
chain: PSPADARPRLTLHDLHDIFREHPELELKYLNMMKMAITGKESICLPFNFHSHRQHTCLDISPYGNEQVSRIACTSCEDNRILPTASDAMVAFINQTSNIMKNRNFYYGFCKSSELLKLSTNQPPIFQIYYLLHAANHDIVPFMHAEDGRLHMHVIFENPDVHIPCDCITQMLTAAREDYSVTLNIVRDHVVISVLCHAVSASSVKIDVTILQRKIDEMDIPNDVSESFERYKELIQELCQSSG
B5: binds [6].

B6: EBV BFLF2, C-terminally fused to the Flag epitope (pcDNA-BFLF2-Flag, pHM4698) (other)
chain: MAPVTPDAVNARQQRPADPALRRLMHPHHRNYTASKASAHSVKSVSRCGKSRSELGRMERVGSVARSICSRHTRHGVDRSHFSLRDFFRGISANFELGKDFLREMNTPIHVSEAVFLPLSLCTLSPGRCLRLSPFGHSLTLGSHCEICINRSQVHVPQEFSSTQLSFFNNVHKIIPNKTFYVSLLSSSPSAVKAGLSQPSLLYAYLVTGHFCGTICPIFSTNGKGRLIMHLLLQGTSLHIPETCLKLLCENIGPTYELAVDLVGDAFCIKVSPRDTVYEKAVNVDEDAIYEAIKDLECGDELRLQIINYTQLILENKQDYKDDDDK
notes: also called Flag-tagged BFLF2
B6: no binding [1]; binds [7].

B7: His-tagged pUL50 (HCMV groove protein, soluble recombinant) (other)
chain: MEMNKVLHQDLVQATRRILKLGPSELRVTDAGLICKNPNYSVCDAMLKTDTVYCVEYLLSYWESRTDHVPCFIFKNTGCAVSLCCFVRAPVKLVSPARHVGEFNVLKVNESLIVTLKDIEEIKPSAYGVLTKCVVRKSNSASVFNIELIAFGPENEGEYENLLRELYAKKAASTS
notes: as for B2
For B7, the “fold stronger than the BFRF1-BFLF2 interaction of EBV” value [8] was roughly 20 fold and the EC50 [9] was 6.2 nM.

B8: no binding [3].

Reference: patent US20210396761A1 (AICURIS, published 2021)
